# Results from article PMC8464079.
# T1: MUT-4N (Caenorhabditis elegans, UniProt Q09487 172-535, N318A;H319A;Q322A)
# T1 sequence: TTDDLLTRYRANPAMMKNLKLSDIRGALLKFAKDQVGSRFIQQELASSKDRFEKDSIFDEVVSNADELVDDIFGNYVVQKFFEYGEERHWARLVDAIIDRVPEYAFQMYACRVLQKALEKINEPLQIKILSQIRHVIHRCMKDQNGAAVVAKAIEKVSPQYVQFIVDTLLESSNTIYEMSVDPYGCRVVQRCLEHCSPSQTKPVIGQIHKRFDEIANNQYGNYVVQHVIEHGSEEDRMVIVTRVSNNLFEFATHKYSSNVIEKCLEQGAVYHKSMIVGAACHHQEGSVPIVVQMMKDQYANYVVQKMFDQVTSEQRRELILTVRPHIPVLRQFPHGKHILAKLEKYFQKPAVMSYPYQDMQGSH
# T2: MUT-8G (Caenorhabditis elegans, UniProt Q09487 172-535, N472S;Y473N;Q476E)
# T2 sequence: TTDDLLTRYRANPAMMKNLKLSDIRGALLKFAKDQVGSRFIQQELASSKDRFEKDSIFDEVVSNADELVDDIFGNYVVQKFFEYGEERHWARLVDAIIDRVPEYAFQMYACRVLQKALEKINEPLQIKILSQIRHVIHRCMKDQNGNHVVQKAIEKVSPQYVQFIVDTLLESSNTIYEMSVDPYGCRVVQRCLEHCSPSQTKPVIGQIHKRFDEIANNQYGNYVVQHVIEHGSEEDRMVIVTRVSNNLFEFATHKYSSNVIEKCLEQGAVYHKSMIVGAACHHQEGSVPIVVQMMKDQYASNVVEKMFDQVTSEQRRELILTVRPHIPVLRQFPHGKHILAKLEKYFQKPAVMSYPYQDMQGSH
# T3: MUT-4A (Caenorhabditis elegans, UniProt Q09487 172-535, N318C;H319R)
# T3 sequence: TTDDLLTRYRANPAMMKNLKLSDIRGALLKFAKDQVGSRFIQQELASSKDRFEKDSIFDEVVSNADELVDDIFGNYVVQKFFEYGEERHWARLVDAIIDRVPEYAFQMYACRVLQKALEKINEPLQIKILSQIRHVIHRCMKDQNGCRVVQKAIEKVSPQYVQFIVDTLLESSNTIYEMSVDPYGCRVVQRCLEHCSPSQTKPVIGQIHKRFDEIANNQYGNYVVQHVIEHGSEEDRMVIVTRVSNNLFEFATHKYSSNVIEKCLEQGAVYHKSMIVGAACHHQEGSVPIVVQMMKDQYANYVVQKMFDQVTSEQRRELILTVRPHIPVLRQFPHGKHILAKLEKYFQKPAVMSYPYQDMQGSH
# T4: MUT-4G (Caenorhabditis elegans, UniProt Q09487 172-535, N318S;H319N;Q322E)
# T4 sequence: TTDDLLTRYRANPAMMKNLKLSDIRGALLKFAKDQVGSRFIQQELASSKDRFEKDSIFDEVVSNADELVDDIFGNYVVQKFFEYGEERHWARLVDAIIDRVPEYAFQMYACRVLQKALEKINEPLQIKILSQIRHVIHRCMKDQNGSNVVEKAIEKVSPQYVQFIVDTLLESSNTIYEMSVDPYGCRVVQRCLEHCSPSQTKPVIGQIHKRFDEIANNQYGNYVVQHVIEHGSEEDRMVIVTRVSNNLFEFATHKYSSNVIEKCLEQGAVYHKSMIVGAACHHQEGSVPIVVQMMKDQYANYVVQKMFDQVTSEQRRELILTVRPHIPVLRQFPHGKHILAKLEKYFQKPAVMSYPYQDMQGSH
# T5: MUT-4C (Caenorhabditis elegans, UniProt Q09487 172-535, N318C;H319Y;Q322R)
# T5 sequence: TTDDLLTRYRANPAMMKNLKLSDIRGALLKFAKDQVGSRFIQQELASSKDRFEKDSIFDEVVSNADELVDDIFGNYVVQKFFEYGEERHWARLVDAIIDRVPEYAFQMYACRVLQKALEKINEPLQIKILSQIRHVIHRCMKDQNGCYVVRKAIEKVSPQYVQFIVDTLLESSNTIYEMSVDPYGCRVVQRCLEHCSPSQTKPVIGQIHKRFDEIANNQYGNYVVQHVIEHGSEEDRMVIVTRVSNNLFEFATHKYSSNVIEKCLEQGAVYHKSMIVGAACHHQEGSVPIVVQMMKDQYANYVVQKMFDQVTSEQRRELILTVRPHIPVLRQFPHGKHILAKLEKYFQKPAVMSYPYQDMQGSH
# T6: PUF-8 WT (FP) (Caenorhabditis elegans, UniProt Q09487 172-535)
# T6 sequence: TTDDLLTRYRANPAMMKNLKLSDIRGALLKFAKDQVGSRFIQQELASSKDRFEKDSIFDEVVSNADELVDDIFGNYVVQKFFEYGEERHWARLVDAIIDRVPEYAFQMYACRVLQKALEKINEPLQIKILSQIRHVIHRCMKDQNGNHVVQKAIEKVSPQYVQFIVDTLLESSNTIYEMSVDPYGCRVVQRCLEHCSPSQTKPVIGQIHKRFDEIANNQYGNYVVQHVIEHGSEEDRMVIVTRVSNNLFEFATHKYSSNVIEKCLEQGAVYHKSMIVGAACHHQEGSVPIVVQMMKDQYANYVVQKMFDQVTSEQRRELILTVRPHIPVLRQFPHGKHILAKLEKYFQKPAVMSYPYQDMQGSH
# B1: Control RNA FAM (ssRNA)
# RNA: AUACAUGU
# B2: PBE-5U FAM (ssRNA)
# RNA: UGUAUAUA
# B3: PBE-5C FAM (ssRNA)
# RNA: UGUACAUA
# B4: PBE-5G FAM (ssRNA)
# RNA: UGUAGAUA
# B5: PBE-1G FAM (ssRNA)
# RNA: GGUACAUA
# Key:
# Assay in all cases: fluorescence polarization
# MUT-4N = target: T1, MUT-4N
# MUT-8G = target: T2, MUT-8G
# MUT-4A = target: T3, MUT-4A
# MUT-4G = target: T4, MUT-4G
# MUT-4C = target: T5, MUT-4C
# PUF-8 WT (FP) = target: T6, PUF-8 WT (FP)
binder,measurement,setting,value
B1,binding result,MUT-4N,no binding
same,binding result,MUT-8G,no binding
same,binding result,MUT-4A,no binding
same,binding result,MUT-4G,no binding
same,binding result,MUT-4C,no binding
B2,Kd,MUT-4N,313 ± 58.2 nM
same,binding result,MUT-8G,no binding
same,Kd,MUT-4A,5.85 ± 1.64 nM
same,Kd,MUT-4G,775 ± 276 nM
same,Kd,PUF-8 WT (FP),1.27 ± 1.16 nM
same,Kd,MUT-4C,3.72 ± 0.94 nM
B3,Kd,MUT-4N,349 ± 83.2 nM
same,binding result,MUT-8G,no binding
same,Kd,MUT-4A,0.64 ± 0.2 nM
same,Kd,MUT-4G,1350 ± 507 nM
same,Kd,PUF-8 WT (FP),0.84 ± 1.08 nM
same,Kd,MUT-4C,2.91 ± 0.36 nM
B4,Kd,MUT-4N,180 ± 22.8 nM
same,binding result,MUT-8G,no binding
same,Kd,MUT-4A,9.99 ± 3.11 nM
same,Kd,MUT-4G,29.8 ± 9.14 nM
same,Kd,PUF-8 WT (FP),12.8 ± 5.63 nM
same,Kd,MUT-4C,11.3 ± 3.43 nM
B5,binding result,MUT-4N,no binding
same,binding result,MUT-8G,no binding
same,Kd,MUT-4A,159 ± 34.1 nM
same,binding result,MUT-4G,no binding
same,Kd,PUF-8 WT (FP),128 ± 25.1 nM
same,Kd,MUT-4C,207 ± 23 nM
